# In patent publication US20040002442A1 (Bayer, published 2004):
# Ends that are not written are not given here. * marks the point of attachment. Palmitoyl = CCCCCCCCCCCCCCCC(=O)*
# T1: GLP-1 receptor present in the plasma membranes isolated from RINm5F cells (UniProt P32301 22-463, limits assumed)
# T1 construct: whole, on cells
# T1 sequence (looked up): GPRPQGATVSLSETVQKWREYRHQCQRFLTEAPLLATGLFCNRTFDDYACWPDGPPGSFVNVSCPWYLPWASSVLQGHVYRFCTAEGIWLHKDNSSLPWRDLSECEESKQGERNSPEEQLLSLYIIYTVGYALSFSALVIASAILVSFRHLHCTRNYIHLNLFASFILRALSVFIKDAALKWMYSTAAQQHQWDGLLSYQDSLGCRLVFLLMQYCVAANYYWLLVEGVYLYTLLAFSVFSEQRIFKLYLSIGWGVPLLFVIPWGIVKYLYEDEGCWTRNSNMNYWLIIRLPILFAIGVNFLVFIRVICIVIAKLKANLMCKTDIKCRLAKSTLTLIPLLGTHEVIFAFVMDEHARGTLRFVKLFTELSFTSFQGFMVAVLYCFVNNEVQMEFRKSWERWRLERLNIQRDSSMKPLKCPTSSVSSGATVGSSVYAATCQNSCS
# Experiments:
# [1] = biological target: T2, glucagon receptor present in the plasma membranes isolated from rat liver (rat, UniProt P30082 27-485); assay: 125I-glucagon displacement, rat liver plasma membranes
# T2 construct: whole, on cells
# T2 sequence (P30082 27-485): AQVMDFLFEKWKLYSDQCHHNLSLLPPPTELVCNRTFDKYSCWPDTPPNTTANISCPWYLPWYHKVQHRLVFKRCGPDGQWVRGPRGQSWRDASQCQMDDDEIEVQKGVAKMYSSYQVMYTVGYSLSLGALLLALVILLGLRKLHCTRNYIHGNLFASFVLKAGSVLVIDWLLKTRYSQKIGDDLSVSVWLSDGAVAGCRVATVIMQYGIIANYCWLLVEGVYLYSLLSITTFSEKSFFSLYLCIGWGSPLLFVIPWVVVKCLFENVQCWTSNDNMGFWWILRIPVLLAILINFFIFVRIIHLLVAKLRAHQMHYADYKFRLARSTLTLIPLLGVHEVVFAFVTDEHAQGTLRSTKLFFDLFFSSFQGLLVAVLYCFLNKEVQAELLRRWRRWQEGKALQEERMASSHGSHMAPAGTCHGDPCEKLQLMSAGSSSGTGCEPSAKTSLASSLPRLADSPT
# Procedure: (§1) Competitive binding of some polypeptides of the invention to rat liver plasma membranes was measured as follows. Ninety-six-well GF/C filtration plates (Millipore, Bedford, Ma.) were blocked with 0.1% PEI for at least one hour and washed twice with binding buffer consisting of 20 mM Tris, 2 mM EDTA, pH 7.5, 1 mg/ml BSA, and 1 mg/ml bacitracin. […] The plates were dried, scintillant was added to each well, and cpm per well determined using a Wallac Microbeta counter.
# [2] = biological target: T1, GLP-1 receptor present in the plasma …; assay: 125I-GLP-1 displacement, RINm5F plasma membranes
# Procedure: as §1, with “RINm5F cell” for “rat liver”, “0.3%” for “0.1%”
# [3] = biological target: T1, GLP-1 receptor present in the plasma …; assay: cell-based or functional assay
# [4] = biological target: T2, glucagon receptor present in the plasma …; assay: cell-based or functional assay
Binder,IC50 [1],IC50 [2],"% GLP1 max, cAMP SPA in RINm5F cells [3]","Relative Potency (%), cAMP SPA in RINm5F cells [3]","% Inhib glucagon stimulated cAMP increase (10 uM peptide, rat hepatocytes) [4]"
HSQGTFTSDYARYLDARRAREFIKWLVRGRGK(Palmitoyl) [G182],220 nM,12.6 nM,104%,1.4%,
HSQGTFTSDYAKYLDARRAKEFIAWLVKGRG [G51],154 nM,8.2 nM,91.2%,58.1%,35.2%
HSQGTFTSDYARYLDAKKAKEFIAWLVKGRG [G59],97.5 nM,2.1 nM,102%,22.7%,41.1%
HSQGTFTSDYARYLDARRAKEFIAWLVRGRG [G82],33.6 nM,8.1 nM,97.1%,29.9%,30.2%
HSQGTFTSDYARYLDARRAREFIKWLVRGRG [G83],28.6 nM,3.2 nM,89.4%,29.9%,24.7%
HSQGTFTSDYAKYLDARRAKEFIAWLVKCRG [G75],54 nM,7.7 nM,86.1%,6.6%,17.1%
HSQGTFTSDYARYLDARRAREFIKWLVRGRC [G185],48 nM,4.5 nM,104%,13%,32%
HSQGTFTSDYARYLDARRAREFIKWLVRGRC(PEG22kD) [G2185],347 nM,56.1 nM,113%,6.2%,
HSQGTFTSDYARYLDARRAK(Palmitoyl)EFIKWLVRGRG (not fully specified; printed as HSQGTFTSDYARYLDARRAK(FA)EFIKWLVRGRG) [G183],663 nM,159 nM,90.5%,0.6%,
HSQGTFTSDYARYLDARRAREFIKWLVRGRC(PEG43kD) [G4185],547 nM,248 nM,98.3%,0.7%,

# Other lines, results leading:
IC50 [1],IC50 [2],"% GLP1 max, cAMP SPA in RINm5F cells [3]","Relative Potency (%), cAMP SPA in RINm5F cells [3]","% Inhib glucagon stimulated cAMP increase (10 uM peptide, rat hepatocytes) [4]",Binder
69.3 nM,2.2 nM,98.1%,13.4%,31%,HSQGTFTSDYAKYLDARRAKEFIAWLVKGR-NH2 [G27]
6.6 nM,6 nM,112%,6.9%,,HSQGTFTSDYSKYLDSRRAQDFVQWLVKGR-NH2 [G1]
243 nM,0.5 nM,109%,69.9%,,HSQGTFTSDYSKYLEGQAAKEFIAWLVKGR-NH2 [G5]
350 nM,109 nM,118%,2.3%,,HSQGTFTSDYAKYLDARRAKEFIAWLVKGRK(Palmitoyl) [G88]
59.1 nM,10.2 nM,85%,7.7%,23%,HSQGTFTSDYAKYLDARRAKEFIAWLVKGCG [G76]
65.5 nM,,93.7%,1.8%,,HSQGTFTSDYAKYLDARRAKEFIAWLVKGRC(PEG22kD) [G277]
164 nM,6.9 nM,99%,76.1%,32.6%,HSQGTFTSDYAKYLDAKKAKEFIAWLVKGRG [G58]
232 nM,10.6 nM,96%,12.1%,45.2%,HSQGTFTSDYARYLDAAKAKEFIAWLVKGRG [G61]
11.7 nM,1.4 nM,114%,61.8%,25.2%,HSQGTFTSDYARYLDARRAREFIAWLVKGRG [G84]
21.7 nM,4.4 nM,88.7%,8.4%,23.7%,HSQGTFTSDYAKYLDARRAKEFIAWLVCGRG [G74]
682 nM,13.8 nM,95.7%,22.3%,21.8%,HSQGTFTSDYAKYLDAAKAKEFIAWLVKGRG [G60]
726 nM,25.4 nM,83.5%,0.8%,,HSQGTFTSDYARYLDARRAREFIK(Palmitoyl)WLVRGRG [G90]
25.6 nM,5.8 nM,93.3%,4.3%,11.3%,HSQGTFTSDYAKYLDARRACEFIAWLVKGRG [G71]
61.1 nM,8.9 nM,92.1%,9.5%,18.6%,HSQGTFTSDYAKYLDARRAKEFIAWLVKGRC [G77]
